According to patent US20240132578A1:

What was measured:
Assay in all cases: cell-based or functional assay
[1] = target: HIV-1 Env of isolate THR0.18 (Acute), clade B (HIV-1)
[2] = target: HIV-1 Env of isolate JRCSF (Clade B) (HIV-1) (UniProt P20871)
[3] = target: HIV-1 Env of isolate MGRM-D-013 (clade D pseudovirus) (HIV-1)
[4] = target: HIV-1 Env of isolate MGRM-G-017 (subtype G) (HIV-1)
[5] = target: HIV-1 Env of isolate MGRM-A-003 (clade A pseudovirus) (HIV-1)
[6] = target: HIV-1 MGRM-AG-002 Env (pseudovirus) (HIV-1)
[7] = target: HIV-1 Env of isolate MGRM-A-012 (clade A pseudovirus) (HIV-1)
[8] = target: HIV-1 Env of pseudovirus MGRM-G-019 (HIV-1)
[9] = target: HIV-1 MGRM-AE-008 Env (pseudovirus) (HIV-1)
[10] = target: HIV-1 Env of isolate MGRM-G-019 (subtype G) (HIV-1)
[11] = target: HIV-1 MGRM-AE-002 Env (pseudovirus) (HIV-1)
[12] = target: HIV-1 Env of isolate MGRM-D-021 (clade D pseudovirus) (HIV-1)
[13] = target: HIV-1 envelope glycoprotein (Env) of isolate MG RM-A-008, subtype A (HIV-1)
[14] = target: HIV-1 JR-CSF Env T413A (HIV-1 (isolate JR-CSF)) (UniProt P20871)
[15] = target: HIV-1 envelope glycoprotein (Env) of isolate 93IN905, on pseudovirus (HIV-1)
[16] = target: HIV-1 envelope glycoprotein (Env) of isolate 94UG103, subtype A (HIV-1)
[17] = target: HIV-1 envelope glycoprotein (Env) of isolate MG RM-A-006, subtype A (HIV-1)
[18] = target: HIV-1 JR-CSF Env I420A (HIV-1 (isolate JR-CSF)) (UniProt P20871)
[19] = target: HIV-1 envelope glycoprotein (Env) of isolate MGRM-AE-002, subtype AE (HIV-1)
[20] = target: HIV-1 JR-CSF Env S393A (HIV-1 (isolate JR-CSF)) (UniProt P20871)
[21] = target: HIV-1 envelope glycoprotein (Env) of isolate 92WR021, subtype A (HIV-1)
[22] = target: HIV-1 envelope glycoprotein (Env) of isolate CAAN.A2, on pseudovirus (HIV-1)
[23] = target: HIV-1 envelope glycoprotein (Env) of isolate QH0692.42, on pseudovirus (HIV-1)
[24] = target: HIV-1 JR-CSF Env I423A (I4234 in the source) (HIV-1 (isolate JR-CSF)) (UniProt P20871)
[25] = target: HIV-1 envelope glycoprotein (Env) of isolate PVO.4, on pseudovirus (HIV-1)
[26] = target: HIV-1 JR-CSF Env R419A (HIV-1 (isolate JR-CSF)) (UniProt P20871)
[27] = target: HIV-1 envelope glycoprotein (Env) of isolate MGRM-Chronic-B-012, on pseudovirus (HIV-1)
[28] = target: HIV-1 Env of isolate MGRM-G-013 (subtype G) (HIV-1)

Sequence of 1443_C16 (PG16) (TCN-116) (antibody) (VH): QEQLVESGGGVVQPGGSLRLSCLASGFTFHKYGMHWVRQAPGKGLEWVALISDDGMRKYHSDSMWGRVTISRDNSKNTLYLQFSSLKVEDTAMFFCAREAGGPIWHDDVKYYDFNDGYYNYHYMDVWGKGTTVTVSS
Sequence of 1443_C16 (PG16) (TCN-116) (antibody) (VL): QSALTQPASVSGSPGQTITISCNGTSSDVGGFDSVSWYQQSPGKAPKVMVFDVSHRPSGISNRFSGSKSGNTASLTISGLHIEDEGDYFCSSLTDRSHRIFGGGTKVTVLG

Row | Substance | IC50 (µg/ml), pseudovirus neutralization [1] [µg/mL] | IC90 (neutralization of pseudovirus) [2] [µg/mL] | IC50, pseudovirus neutralization [3] [µg/mL] | IC50 (µg/ml), pseudovirus neutralization [5] [µg/mL] | IC50 (µg/ml), pseudovirus neutralization [6] [µg/mL] | IC50 (µg/ml), pseudovirus neutralization [7] [µg/mL] | IC50 (µg/ml), pseudovirus neutralization [8] [µg/mL] | IC50 (µg/ml), pseudovirus neutralization [9] [µg/mL] | IC50 (µg/ml), pseudovirus neutralization [11] [µg/mL] | IC50, pseudovirus neutralization [12] [µg/mL] | IC50, pseudovirus neutralization [13] [µg/mL] | IC50, pseudovirus neutralization [15] [µg/mL] | IC50, pseudovirus neutralization [16] [µg/mL] | IC50, pseudovirus neutralization [17] [µg/mL] | IC50, pseudovirus neutralization [19] [µg/mL] | IC50, pseudovirus neutralization [21] [µg/mL] | IC50, pseudovirus neutralization [22] [µg/mL] | IC50, pseudovirus neutralization [23] [µg/mL] | IC50, pseudovirus neutralization [25] [µg/mL] | IC50, pseudovirus neutralization [27] [µg/mL] | further results
1 | 1496_C09 (PG9) (TCN-109) (antibody) | 12.4 | < 0.0025 | 0.06 | 0.65 | 0.04 | 11.2 | 0.67 | 10.6 | 0.04 |  |  |  |  |  |  |  |  |  |  |  | Neutralization IC80 [2]: 0.0181 µg/mL; Neutralization IC90 [2]: 0.0391 µg/mL; Neutralization IC95 [2]: 0.0798 µg/mL; neutralization IC50 [2]: 0.0048 µg/mL; IC50 (µg/mL), pseudovirus neutralization [4]: 0.104 µg/mL; IC50 (µg/mL), pseudovirus neutralization [10]: 14.6 µg/mL
2 | 2F5 (antibody) | > 50 | 25.3 | 2.12 | 7.37 | 0.54 | 2.36 | > 50 | > 50 | 0.31 | > 50 |  |  |  |  |  |  |  |  |  |  | 
3 | 5145_B14 (PGT-127) (antibody) |  |  |  |  |  |  |  |  |  |  | > 50 | 0.024 | 0.017 | > 50 | > 50 | 0.011 | 0.371 | 0.129 | 0.164 | 0.075 | Fold IC50 increase relative to wild-type (pseudovirus neutralization) [14]: 0.8 fold; Fold IC50 increase relative to wild-type (pseudovirus neutralization) [18]: 1.8 fold; Fold IC50 increase relative to wild-type (pseudovirus neutralization) [20]: 1.2 fold; Fold IC50 increase relative to wild-type (pseudovirus neutralization) [24]: 0.5 fold; Fold IC50 increase relative to wild-type (pseudovirus neutralization) [26]: 2.5 fold
4 | 1495_C14 (PGC14) (antibody) | > 50 |  | > 50 | > 50 | > 50 | > 50 | > 50 | > 50 | > 50 | > 50 |  |  |  |  |  |  |  |  |  |  | 
5 | 5123_A06 (PGT-125) (antibody) |  |  |  |  |  |  |  |  |  |  | > 50 | 0.009 | 0.008 | > 50 | > 50 | 0.005 | 5.47 | 0.048 | 0.042 | 0.036 | Fold IC50 increase relative to wild-type (pseudovirus neutralization) [14]: 0.5 fold; Fold IC50 increase relative to wild-type (pseudovirus neutralization) [18]: 1.1 fold; Fold IC50 increase relative to wild-type (pseudovirus neutralization) [20]: 0.5 fold; Fold IC50 increase relative to wild-type (pseudovirus neutralization) [24]: 5 fold; Fold IC50 increase relative to wild-type (pseudovirus neutralization) [26]: 1 fold
6 | 5141_B17 (PGT-126) (antibody) |  |  |  |  |  |  |  |  |  |  | > 50 | 0.015 | 0.008 | > 50 | > 50 | 0.006 | 0.273 | 0.048 | 0.017 | 0.027 | Fold IC50 increase relative to wild-type (pseudovirus neutralization) [14]: 0.7 fold; Fold IC50 increase relative to wild-type (pseudovirus neutralization) [18]: 0.6 fold; Fold IC50 increase relative to wild-type (pseudovirus neutralization) [20]: 0.5 fold; Fold IC50 increase relative to wild-type (pseudovirus neutralization) [24]: 1.1 fold; Fold IC50 increase relative to wild-type (pseudovirus neutralization) [26]: 1.2 fold
7 | 4858_P08 (PGT-123) (antibody) |  |  |  |  |  |  |  |  |  |  | > 50 | 0.004 | 0.678 | > 50 | > 50 | 0.005 | 0.015 | 0.158 | 0.105 | 0.227 | Fold IC50 increase relative to wild-type (pseudovirus neutralization) [14]: 0.4 fold; Fold IC50 increase relative to wild-type (pseudovirus neutralization) [18]: 3.2 fold; Fold IC50 increase relative to wild-type (pseudovirus neutralization) [20]: 0.6 fold; Fold IC50 increase relative to wild-type (pseudovirus neutralization) [24]: 1.5 fold; Fold IC50 increase relative to wild-type (pseudovirus neutralization) [26]: 0.7 fold
8 | 4838_L06 (PGT-121) (antibody) |  |  |  |  |  |  |  |  |  |  | > 50 | 0.005 | 2.52 | 0.396 | > 50 | 0.009 | 0.011 | 0.823 | 0.137 | 0.036 | 
9 | 4877_D15 (PGT-122) (antibody) |  |  |  |  |  |  |  |  |  |  | > 50 | 0.013 | 2.04 | > 50 | > 50 | 0.021 | 0.011 | 0.493 | 0.689 | 0.066 | 
10 | 1443_C16 (PG16) (TCN-116) (antibody) | 1.34 | 0.013 | 0.11 | 2.65 | 0.03 | 20.7 | 1.21 | 3.25 | 0.01 | > 50 |  |  |  |  |  |  |  |  |  |  | 
11 | 4E10 (antibody) | 4.68 | 44.1 | 5.38 | 5.94 | 0.8 | 4.27 | 6.53 | 0.94 | 0.55 | 13.3 |  |  |  |  |  |  |  |  |  |  | 
12 | 2G12 (antibody) | > 50 | 5.38 | > 50 | > 50 | 0.54 | > 50 | 31 | > 50 | > 50 | 23 |  |  |  |  |  |  |  |  |  |  | 
13 | PGV04 (antibody) |  |  |  |  |  |  |  |  |  |  |  |  |  |  |  |  |  |  |  |  | IC50 (µg/mL), pseudovirus neutralization [4]: 0.065 µg/mL; IC50 (µg/mL), pseudovirus neutralization [28]: 0.168 µg/mL; IC50 (µg/mL), pseudovirus neutralization [10]: 0.027 µg/mL
14 | b12 (antibody) | 3.62 | 1.17 | > 50 | > 50 | 0.89 | > 50 | 3.77 | > 50 | 17.1 | 5.23 |  |  |  |  |  |  |  |  |  |  | 
